Data as given in patent publication US12508311B2, “Fusion protein, and preparation method and use thereof” (SUN YAT-SEN UNIVERSITY, priority 2021, dated 2025).
Substitutions are numbered along the chain they refer to.

Key:
HT29 (KRas wt) = assay: Cell clone formation experiment, HT29; conditions: 10 and 20 μg/mL
[1] = system: KRas mutant-type (HCT116) colorectal cancer; assay: In-vivo tumor formation experiment, HCT116 subcutaneous tumor; set-up: species or system mice; conditions: seven times
Description: • (1) Balb/c nude mice, female, 4 weeks to 5 weeks old, purchased from Guangdong Laboratory Animal Center and raised in Laboratory Animal Center of Sun Yat-sen University, were used in this experiment. […] After counting, 7.5 million HT29 and HCT116 cells were taken respectively, washed twice with PBS, centrifuged at 300 g for 5 minutes after fishing each washing, and collected. • (3) The cell dilution buffer solution having the composition of PBS: matrix glue (Corning Company)=1:1 was prepared to resuspend the cells. […] In the experiment, the administration volume was 150 μL, the administration frequency was once every three days at a fixed time, and the administration was continued for seven times. • (6) After the administration, each mouse was injected with 150 μL of tribromoethanol, and then killed by cervical dislocation. […]
• (1) Balb/c nude mice, female, 4 weeks to 5 weeks old, purchased from Guangdong Laboratory Animal Center and raised in Laboratory Animal Center of Sun Yat-sen University, were used in this experiment. The experimental mice were divided into two groups, with five mice in each group, which were respectively a phosphate buffer solution (PBS) control group and a […]. • (2) The HT29 and HCT116 cells in the logarithmic phase were digested with pancreatin, the digestion was stopped with the complete culture solution, and then the cells were counted. […]

[2] = Residence time in vivo (serum western blot); set-up: species or system mice
Description: • (1) Balb/c nude mice, female, 4 weeks to 5 weeks old, purchased from Guangdong Laboratory Animal Center and raised in Laboratory Animal Center of Sun Yat-sen University, were used in this experiment. […] The serum protein concentration was measured by the BCA method (as described above). 20 μg of serum protein was respectively taken for the WB experiment (as described above), and whole serum protein gel running and Coomassie brilliant blue staining. • (4) Experimental results were shown in FIG. 19.

KRas protein = target: T1, KRas protein (Homo sapiens, UniProt P01116); assay: SPR binding capacity experiment (BiacoreT200); conditions: in vitro; for binding capacity with the KRas protein (SPR): molecule coupled on CM5 chip, KRas flowing
T1 construct: made in house
Description: 100 μL of coating solution was added into each well of 96-well ELISA plate to coat overnight at 4° C. • (3) Blocking: the ELISA plate was cleaned with a phosphate buffer solution (PBS) (PBS formula: 4 g of NaCl, 0.1 g of KCl, 1.815 g of disodium hydrogen phosphate dodecahydrate, and 0.12 g of […], dissolved in 400 mL of ultrapure water, with a constant volume of 500 mL for use) for 5 minutes each time. 300 μL of 5% (w/v) bovine serum albumin was added into each well, and blocked at 37° C. for 2 hours. • (4) Adding of the purified protein KRas: 6.25 μg, 12.5 μg, 25 μg, 50 μg and 100 μg of purified protein were respectively pre-mixed and diluted in 200 μL of PBS, and the diluted KRas protein was added into the wells in sequence, and slowly shaken at the room temperature for 5 hours. […] Main steps of the example were as follows: • (1) Coupling of ligand: the target coupling amount was calculated according to the following formula:
[formula] wherein Rmax was the maximum binding capacity on the chip surface, and 100 RU was usually substituted in a protein test. […] Through the preconcentration experiment, it was determined that pH 5.0 was the optimal coupling condition. […] In this experiment, aimforimmobilized level was selected, and the calculated 110RU was inputted in target level. […]

T1 sequence (P01116 whole entry): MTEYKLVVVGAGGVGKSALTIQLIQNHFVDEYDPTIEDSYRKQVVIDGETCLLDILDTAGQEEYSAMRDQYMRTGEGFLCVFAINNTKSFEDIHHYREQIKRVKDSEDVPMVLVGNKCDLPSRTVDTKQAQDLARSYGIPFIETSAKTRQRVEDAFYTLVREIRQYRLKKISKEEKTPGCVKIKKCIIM

B1: TKD: fusion protein: tumour-cell-penetrating peptide BR2, anti-KRas nanobody VHH and lysosome recognition peptide CTM; SEQ ID NO.4 (protein)
chain: RAGLQFPVGRLLRRLLRDVQLQESGGGLVQAGGSLRLSCVASGRTFSTYPTGWFRQAPGKEREFVARINLSGGITNYADSVKGRFTISRDNAKNTVYLQMNSLKPEDTAVYYCGGGSTTWAGGIPTNFDYWGQGTQVTVSSGRKFERQKILDQRFFE
inhibition of clone growth (HT29 (KRas wt)): could significantly inhibit the growth
inhibition of tumor growth (tumor weight) ([1]; TKD 25 and 50 mg/kg intraperitoneal, once every three days, vs PBS): could significantly inhibit the growth
tumor growth inhibition, TKD-50 mg/kg group compared with TKD-25 mg/kg group ([1]; intraperitoneal): had a better effect than the TKD-25 mg/kg group
detection in serum after administration (western blot) ([2]; 50 mg/kg intraperitoneal once, 3 days after administration): could still be detected
half-life period in vivo ([2]; inferred from serum detection 3 days after 50 mg/kg): long
level of binding between TKD and the KRas protein (SPR) (KRas protein): reached the level of antigen-antibody binding (nM)
binding capacity with the KRas protein (SPR) (KRas protein): had a strong binding capacity with the KRas protein in vitro

B2: TKDm: control molecule of TKD with mutated CTM fragment (CTMmt) which could not be recognized by a lysosome; SEQ ID NO.5 (protein)
chain: B1 chain with Q148A, Q153A
binding capacity with the KRas protein (SPR) (KRas protein): had a strong binding capacity with the KRas protein in vitro
